Source: PMC3715477

Biological target: CC-Gp047 (residues 1040–1365 of Gp047, putative receptor binding protein of C. jejuni phage NCTC12673) (Campylobacter jejuni phage NCTC12673)
Assay: SDS-resistant oligomers (method not named; data not shown); data not shown; oligomers called SDS-resistant; construct and conditions not told

“CC-Gp047 (residues 1040–1365 of Gp047, putative receptor binding protein of C. jejuni phage NCTC12673) (domain or fragment)” showed a stoichiometry N of over 3.
